Reference: US20240159744A1, “COLON CANCER DIAGNOSIS OR DETECTION COMPOSITION FOR PREDICTING RESPONSE TO DRUG, AND COMPOSITION FOR PREVENTING OR TREATING COLON CANCER” (priority 2020, published 2024)

Tested on: HCT-15 tumor-bearing mice
Assay: In-vivo and ex-vivo fluorescence imaging of EGF-Cy5.5, C-probe, EGF-probe
Description: The biodistribution of the EGF-probe intravenously administered to mice having HCT-15, HT29, Lovo or HCT-8 tumors was evaluated. First of all, 6-week-old Balb/c-nude mice (Nara-Biotec, Gyeonggi-do, Korea) were prepared and each cell was subcutaneously inoculated into the nude mice at the right flank at a concentration of 2×10^6 cells/mouse to generate tumors. […] At 24 hours after the administration of the EGF-probe, the mouse was imaged using an IVIS fluorescence imaging system. […] IVIS fluorescence imaging was conducted at 24 hours after the administration. Major organs and tumors were obtained and imaged with an IVIS imaging system. The fluorescence intensity of the organs and tumors was analyzed using the Living Image 2.50 software. […] The tumor tissue sections were counter-stained with DAPI and visualized with a confocal microscope.

B1: EGF-Cy5.5 (conjugate, UniProt P01133 23-1207, looked up)
Pro-epidermal growth factor: PQHWSCPEGTLAGNGNSTCVGPAPFLIFSHGNSIFRIDTEGTNYEQLVVDAGVSVIMDFHYNEKRIYWVDLERQLLQRVFLNGSRQERVCNIEKNVSGMAINWINEEVIWSNQQEGIITVTDMKGNNSHILLSALKYPANVAVDPVERFIFWSSEVAGSLYRADLDGVGVKALLETSEKITAVSLDVLDKRLFWIQYNREGSNSLICSCDYDGGSVHISKHPTQHNLFAMSLFGDRIFYSTWKMKTIWIANKHTGKDMVRINLHSSFVPLGELKVVHPLAQPKAEDDTWEPEQKLCKLRKGNCSSTVCGQDLQSHLCMCAEGYALSRDRKYCEDVNECAFWNHGCTLGCKNTPGSYYCTCPVGFVLLPDGKRCHQLVSCPRNVSECSHDCVLTSEGPLCFCPEGSVLERDGKTCSGCSSPDNGGCSQLCVPLSPVSWECDCFPGYDLQLDEKSCAASGPQPFLLFANSQDIRHMHFDGTDYGTLLSQQMGMVYALDHDPVENKIYFAHTALKWIERANMDGSQRERLIEEGVDVPEGLAVDWIGRRFYWTDRGKSLIGRSDLNGKRSKIITKENISQPRGIAVHPMAKRLFWTDTGINPRIESSSLQGLGRLVIASSDLIWPSGITIDFLTDKLYWCDAKQSVIEMANLDGSKRRRLTQNDVGHPFAVAVFEDYVWFSDWAMPSVMRVNKRTGKDRVRLQGSMLKPSSLVVVHPLAKPGADPCLYQNGGCEHICKKRLGTAWCSCREGFMKASDGKTCLALDGHQLLAGGEVDLKNQVTPLDILSKTRVSEDNITESQHMLVAEIMVSDQDDCAPVGCSMYARCISEGEDATCQCLKGFAGDGKLCSDIDECEMGVPVCPPASSKCINTEGGYVCRCSEGYQGDGIHCLDIDECQLGEHSCGENASCTNTEGGYTCMCAGRLSEPGLICPDSTPPPHLREDDHHYSVRNSDSECPLSHDGYCLHDGVCMYIEALDKYACNCVVGYIGERCQYRDLKWWELRHAGHGQQQKVIVVAVCVVVLVMLLLLSLWGAHYYRTQKLLSKNPKNPYEESSRDVRSRRPADTEDGMSSCPQPWFVVIKEHQDLKNGGQPVAGEDGQAADGSMQPTSWRQEPQLCGMGTEQGCWIPVSSDKGSCPQVMERSFHMPSYGTQTLEGGVEKPHSLLSANPLWQQRALDPPHQMELTQ
modifications: Pro-epidermal growth factor Cy5.5 dye label
With B1 the “in-vivo fluorescence imaging (tumor and background signals)” value (5 mg/kg intravenous, 24 hours, IVIS) was “strong fluorescence signal at the tumor site but nonspecific background signals were observed throughout the body” and the “fluorescence of tumor tissue sections” value (cryosections, confocal) was “observed clearly”.
